Measurements taken from patent US20040043420A1, “Method of identifying conformation-sensitive binding peptides and uses thereof” (priority 2003, published 2004).

Tests used:
ER β [1] = target: ER β (Homo sapiens, UniProt Q92731); assay: Phage ELISA fingerprint: binding of peptide phage to immobilized ER β in the presence of modulators (Table 14B)
[2] = target: T1, Gal4 transcriptional activation domain (AD) fused in frame with AR (yeast, UniProt P10275 1-920, limits assumed); assay: cell-based or functional assay
T1 sequence (looked up): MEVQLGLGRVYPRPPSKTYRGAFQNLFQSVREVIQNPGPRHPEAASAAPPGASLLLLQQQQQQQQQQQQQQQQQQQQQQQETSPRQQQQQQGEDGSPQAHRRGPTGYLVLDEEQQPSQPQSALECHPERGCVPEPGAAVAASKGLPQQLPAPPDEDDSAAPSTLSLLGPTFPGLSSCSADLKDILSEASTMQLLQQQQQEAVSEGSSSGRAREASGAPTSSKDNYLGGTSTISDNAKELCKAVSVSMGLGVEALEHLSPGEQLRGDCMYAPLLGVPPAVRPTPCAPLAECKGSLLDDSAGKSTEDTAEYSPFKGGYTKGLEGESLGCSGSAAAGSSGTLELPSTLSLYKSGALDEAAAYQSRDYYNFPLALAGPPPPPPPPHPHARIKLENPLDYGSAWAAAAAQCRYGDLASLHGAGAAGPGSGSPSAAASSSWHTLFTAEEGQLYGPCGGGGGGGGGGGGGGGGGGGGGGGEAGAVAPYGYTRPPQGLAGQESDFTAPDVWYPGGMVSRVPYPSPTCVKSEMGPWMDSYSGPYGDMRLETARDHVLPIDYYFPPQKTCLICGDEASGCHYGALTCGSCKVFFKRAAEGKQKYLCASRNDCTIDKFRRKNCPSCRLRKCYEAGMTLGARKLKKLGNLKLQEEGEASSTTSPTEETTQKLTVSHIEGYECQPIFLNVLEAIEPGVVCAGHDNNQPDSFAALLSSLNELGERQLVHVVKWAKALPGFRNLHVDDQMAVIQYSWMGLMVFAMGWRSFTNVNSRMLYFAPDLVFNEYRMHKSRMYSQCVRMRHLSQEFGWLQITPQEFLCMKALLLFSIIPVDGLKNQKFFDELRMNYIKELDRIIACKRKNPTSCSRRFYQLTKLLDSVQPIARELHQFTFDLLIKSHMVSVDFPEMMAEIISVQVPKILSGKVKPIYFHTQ

[3] = target: T1, Gal4 transcriptional activation domain …; assay: cell-based or functional assay; remark: listed apart in the source
ER β [4] = target: T2, ER β (UniProt Q92731 1-530, limits assumed); assay: peptide probe binding to ERβ, Clomiphene
T2 construct: In vitro; also called estrogen receptor β; ERβ-ERE
T2 sequence (Q92731 whole entry): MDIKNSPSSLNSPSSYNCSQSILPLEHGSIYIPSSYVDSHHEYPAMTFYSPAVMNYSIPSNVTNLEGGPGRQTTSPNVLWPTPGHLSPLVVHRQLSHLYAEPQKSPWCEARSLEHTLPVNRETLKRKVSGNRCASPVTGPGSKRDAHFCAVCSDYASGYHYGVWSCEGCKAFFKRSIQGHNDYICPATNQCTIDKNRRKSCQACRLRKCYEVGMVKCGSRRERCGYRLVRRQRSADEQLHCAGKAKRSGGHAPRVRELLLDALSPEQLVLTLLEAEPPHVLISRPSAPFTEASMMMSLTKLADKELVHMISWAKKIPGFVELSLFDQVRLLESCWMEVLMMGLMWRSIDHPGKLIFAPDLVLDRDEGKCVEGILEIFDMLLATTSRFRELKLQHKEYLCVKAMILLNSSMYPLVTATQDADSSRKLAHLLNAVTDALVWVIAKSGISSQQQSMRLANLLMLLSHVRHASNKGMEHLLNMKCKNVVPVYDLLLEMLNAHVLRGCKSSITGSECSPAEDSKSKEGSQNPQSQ

ER β [5] = target: T2, ER β; assay: phage ELISA, ICI 182,780 1 µM
ER β [6] = target: T2, ER β; assay: peptide probe binding to ERβ, Raloxifene
ER α [7] = target: T3, ER α (UniProt P03372 1-595, limits assumed); assay: phage isolated on ERα on plastic; ICI 182,780
T3 construct: also called estrogen receptor α; ERα-ERE
T3 sequence (looked up): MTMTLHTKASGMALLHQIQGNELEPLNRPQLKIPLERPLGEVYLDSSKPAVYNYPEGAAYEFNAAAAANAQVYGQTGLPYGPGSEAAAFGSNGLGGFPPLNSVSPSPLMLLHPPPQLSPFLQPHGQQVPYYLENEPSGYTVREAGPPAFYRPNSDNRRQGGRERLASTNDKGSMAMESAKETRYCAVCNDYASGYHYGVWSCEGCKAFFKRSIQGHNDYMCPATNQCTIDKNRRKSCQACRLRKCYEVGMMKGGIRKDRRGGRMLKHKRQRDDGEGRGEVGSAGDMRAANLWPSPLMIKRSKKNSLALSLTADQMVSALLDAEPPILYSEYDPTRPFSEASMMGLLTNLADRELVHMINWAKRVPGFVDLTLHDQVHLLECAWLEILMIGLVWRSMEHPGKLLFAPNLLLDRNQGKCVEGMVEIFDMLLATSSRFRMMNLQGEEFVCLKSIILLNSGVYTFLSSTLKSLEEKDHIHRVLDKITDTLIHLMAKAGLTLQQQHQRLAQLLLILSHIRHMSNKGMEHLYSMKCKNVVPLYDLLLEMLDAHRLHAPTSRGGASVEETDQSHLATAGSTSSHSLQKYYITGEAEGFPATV

ER α [8] = target: T3, ER α; assay: phage isolated on ERα-ERE; Tamoxifen
ER β [9] = target: T2, ER β; assay: peptide probe binding to ERβ, Estriol
ER α, P03372 [10] = target: T4, ER α, P03372; assay: peptide probe binding to ERα, 17α-Estradiol
T4 chain: T3 sequence (looked up)

ER α, P03372 [11] = target: T4, ER α, P03372; assay: peptide probe binding to ERα, Nafoxidine
ER α, P03372 [12] = target: T4, ER α, P03372; assay: peptide probe binding to ERα, Diethylstilbesterol
ER α, P03372 [13] = target: T4, ER α, P03372; assay: peptide probe binding to ERα, Clomiphene
ER α, P03372 [14] = target: T4, ER α, P03372; assay: peptide probe binding to ERα, GW7604
ER α, P03372 [15] = target: T4, ER α, P03372; assay: peptide probe binding to ERα, Estriol
ER α, P03372 [16] = target: T4, ER α, P03372; assay: peptide probe binding to ERα, ICI 182,780
ER α, P03372 [17] = target: T4, ER α, P03372; assay: peptide probe binding to ERα, 17β-Estradiol
ER α, P03372 [18] = target: T4, ER α, P03372; assay: peptide probe binding to ERα, 4-OH Tamoxifen
ER α, P03372 [19] = target: T4, ER α, P03372; assay: peptide probe binding to ERα, Buffer
ER α, P03372 [20] = target: T4, ER α, P03372; assay: peptide probe binding to ERα, Raloxifene

ER β (Homo sapiens, UniProt Q92731), sequence (Q92731 whole entry, species assumed, the tested form may be a part): as the sequence (Q92731 whole entry) above

For SRLPPSVFSMCGSEVCLSR [9Tβ], the “Class Specific Fingerprint on ERβ: phage binding, Nafoxidine present” value (ER β [1]; nafoxidine 10 μM) was 5.

With SSNHQSSRLIELLSR [#4 ER./E2] the “Class Specific Fingerprint on ERβ: phage binding, 4-OH Tamoxifen present” value (ER β [1]; 4-OH tamoxifen 1 μM) was 0, the “Class Specific Fingerprint on ERβ: phage binding, ICI 182,780 present” value (ER β [1]; ICI 182,780 1 μM) was 0 and the “Class Specific Fingerprint on ERβ: phage binding, Clomiphene present” value (ER β [1]; clomiphene 10 μM) was 0. The “Class Specific Fingerprint on ERβ: phage binding, Raloxifene present” value (ER β [1]; raloxifene 1 μM) was 0.

B1: M2H3 (peptide)
chain: MKLLSSIEQACDICRLKKLKCSKEKPKCAKCLKNNWECRYSPKTKRSPLTRAHLTEVESRLERLEQLFLLIFPREDLDMILKMDSLQDIKALLTGLFVQDNVNKDAVTDRLASVETDMPLTLRQHRISATSSSEESSNKGQRQLTVSEFRQSFVSEILGGGWLPLDLQPS
For B1, the “β-galactosidase activity (yeast two-hybrid), CPA” value (“β-galactosidase activity … CPA” for short) [2] was 8.59, the “β-galactosidase activity (yeast two-hybrid), DHT” value (from here on “β-galactosidase activity … DHT”) [2] was 24.1 and the “β-galactosidase activity (yeast two-hybrid), MPA” value (from here on “β-galactosidase activity … MPA”) [2] was 19.2. For the same molecule, the “β-galactosidase activity (yeast two-hybrid), No Lig” value (“β-galactosidase activity … No Lig” for short) [2] was 2.53, the “β-galactosidase activity (yeast two-hybrid), RU” value (“β-galactosidase activity … RU” for short) [2] was 6.8 and the “β-galactosidase activity (yeast two-hybrid), Test” value (“β-galactosidase activity … Test” for short) [2] was 26.6. The “Fold induction (yeast two-hybrid)” value [3] was 10 fold.

B2: 4T-β (peptide)
peptide: SREWEDGFGGRWLSR
notes: also called β I; B1
With B2 the Equiv. (ER β [4]) was -62%, the “phage ELISA grade” value (ER β [5]) was 0 and the Equiv. (ER β [6]) was -53%.

B3: 5PI (peptide)
peptide: SSDCESLTSYPHLKALCSR
B3: binds (ER α [7]).

B4: T2-10 (peptide)
peptide: SRFEIWKPEPGCVSSLENWEPGKRVCSR
B4: binds (ER α [8]).

B5: B22F6 (peptide)
chain: MKLLSSIEQACDICRLKKLKCSKEKPKCAKCLKNNWECRYSPKTKRSPLTRAHLTEVESRLERLEQLFLLIFPREDLDMILKMDSLQDIKALLTGLFVQDNVNKDAVTDRLASVETDMPLTLRQHRISATSSSEESSNKGQRQLTVSEFLSGLEMEVVLWHYGRLDLQPS
In the case of B5, the “β-galactosidase activity … CPA” value [2] is reported as 1.23, the “β-galactosidase activity … DHT” value [2] is reported as 7.85 and the “β-galactosidase activity … MPA” value [2] is reported as 4.56. The “β-galactosidase activity … No Lig” value [2] was 0.794, the “β-galactosidase activity … RU” value [2] was 1.2 and the “β-galactosidase activity … Test” value [2] was 7.77. For the same molecule, the “Fold induction (yeast two-hybrid)” value [3] was 10 fold.

B6: 7PI (peptide)
peptide: SSGKTREHYREGTSR
B6: binds (ER α [7]).

B7: T3-1 (peptide)
peptide: SRTLQLDWGTLYSR
B7: binds (ER α [8]).

B8: 12B-β (peptide)
peptide: SSEACVGRWMLCEQLGVSR
notes: also called β III; B3
B8 gave an Equiv. (ER β [4]) of -61%, an Equiv. (ER β [9]) of 77% and an Equiv. (ER β [6]) of -71%.

B9: 6PI (peptide)
peptide: SSTATALRDRLAYSR
B9: binds (ER α [7]).

B10: T3-11 (peptide)
peptide: SRVFGVSGGEVVLINGSSR
B10: binds (ER α [8]).

B11: B8A10 (peptide)
chain: MKLLSSIEQACDICRLKKLKCSKEKPKCAKCLKNNWECRYSPKTKRSPLTRAHLTEVESRLERLEQLFLLIFPREDLDMILKMDSLQDIKALLTGLFVQDNVNKDAVTDRLASVETDMPLTLRQHRISATSSSEESSNKGQRQLTVSEFVNWDAVVPWSELVALLDLQPS
With B11 the “β-galactosidase activity … CPA” value [2] was 0.395, the “β-galactosidase activity … DHT” value [2] was 0.616 and the “β-galactosidase activity … No Lig” value [2] was 0.875. The “β-galactosidase activity … RU” value [2] was 0.4 and the “Fold induction (yeast two-hybrid)” value [3] was 1 fold.

B12: 35E-β (peptide)
peptide: SSLDLSQFPMTASFLRESR
notes: also called β II; B2
For B12, the “phage ELISA grade” value (ER β [5]) was 0.

B13: M4D1 (peptide)
chain: MKLLSSIEQACDICRLKKLKCSKEKPKCAKCLKNNWECRYSPKTKRSPLTRAHLTEVESRLERLEQLFLLIFPREDLDMILKMDSLQDIKALLTGLFVQDNVNKDAVTDRLASVETDMPLTLRQHRISATSSSEESSNKGQRQLTVSEFRFPFHEMVREWESMGLERVRYAEP
For B13, the “β-galactosidase activity … CPA” value [2] was -0.0396, the “β-galactosidase activity … DHT” value [2] was 0.395 and the “β-galactosidase activity … MPA” value [2] was 1.7. The “β-galactosidase activity … No Lig” value [2] was 0, the “β-galactosidase activity … RU” value [2] was 0.1 and the “β-galactosidase activity … Test” value [2] was 0.134. For the same molecule, the “Fold induction (yeast two-hybrid)” value [3] was greater than 2 fold.

B14: M7B1 (peptide)
chain: MKLLSSIEQACDICRLKKLKCSKEKPKCAKCLKNNWECRYSPKTKRSPLTRAHLTEVESRLERLEQLFLLIFPREDLDMILKMDSLQDIKALLTGLFVQDNVNKDAVTDRLASVETDMPLTLRQHRISATSSSEESSNKGQRQLTVSEFVGWFTGMAACSYAPDLDLQPS
For B14, the “β-galactosidase activity … CPA” value [2] was 1.69, the “β-galactosidase activity … DHT” value [2] was 3.93 and the “β-galactosidase activity … MPA” value [2] was 6.9. For the same molecule, the “β-galactosidase activity … No Lig” value [2] was 0, the “β-galactosidase activity … RU” value [2] was 0.1 and the “β-galactosidase activity … Test” value [2] was 4.5. The “Fold induction (yeast two-hybrid)” value [3] was greater than 2 fold.

B15: B18C4 (peptide)
chain: MKLLSSIEQACDICRLKKLKCSKEKPKCAKCLKNNWECRYSPKTKRSPLTRAHLTEVESRLERLEQLFLLIFPREDLDMILKMDSLQDIKALLTGLFVQDNVNKDAVTDRLASVETDMPLTLRQHRISATSSSEESSNKGQRQLTVSEFDSPWVWFGGEPGLNLLDLQPS
B15 was tested, and the “β-galactosidase activity … CPA” value [2] was 1.53, the “β-galactosidase activity … DHT” value [2] was 1.43 and the “β-galactosidase activity … MPA” value [2] was 1.44. For the same molecule, the “β-galactosidase activity … No Lig” value [2] was 1.12, the “β-galactosidase activity … RU” value [2] was 1.5 and the “β-galactosidase activity … Test” value [2] was 0.969. For the same molecule, the “Fold induction (yeast two-hybrid)” value [3] was 1 fold.

B16: phage 5 (Table 2) (peptide)
peptide: SSLTSRDFGSWYASR
modifications: not checked
B16 gave an Equiv. (ER α, P03372 [10]) of 80%, an Equiv. (ER α, P03372 [11]) of 32% and an Equiv. (ER α, P03372 [12]) of 69%. It also gave an Equiv. (ER α, P03372 [13]) of 56%, an Equiv. (ER α, P03372 [14]) of 35% and an Equiv. (ER α, P03372 [15]) of 62%. It also gave an Equiv. (ER α, P03372 [16]) of 56%, an Equiv. (ER α, P03372 [17]) of 100% and an Equiv. (ER α, P03372 [18]) of 38%. It also gave an Equiv. (ER α, P03372 [19]) of 0% and an Equiv. (ER α, P03372 [20]) of 44%.
